Reference: patent US20240392276

Target: eGFP displaying an MBP tag connected with a TEV cleavage site (MBP-TEVsite-eGFP)

B1: His-CBD-TEV protease (protein)
chain: HHHHHHGSGSSGLTTNPGVSAWQVNTAYTAGQLVTYNGKTYKCLQPHTSLAGWEPSNVPALWQLQGSGSSGESLFKGPRDYNPISSSICHLTNESDGHTTSLYGIGFGPFIITNKHLFRRNNGTLVVQSLHGVFKVKDTTTLQQHLVDGRDMIIIRMPKDFPPFPQKLKFREPQREERICLVTTNFQTKSMSSMVSDTSCTFPSGDGIFWKHWIQTKDGQCGSPLVSTRDGFIVGIHSASNFTNTNNYFTSVPKNFMELLTNQEAQQWVSGWRLNADSVLWGGHKVFMSKPEEPFQPVKEATQLMN
  digestion on Bis-tris protein gel (protease activity): In the presence of His-CBD-TEV, MBP-TEVsite-eGFP is cleaved into the MBP tag (43 kDa) and eGFP (33 kDa)
